B1: HER2/neu DR supermotif exemplary peptide ITDFGLARLLDIDET (position 861) (peptide)
peptide: ITDFGLARLLDIDET
notes: synthetic 15-mer; also called Her2/neu.861
B2: HER2/neu DR supermotif exemplary peptide LLVVVLGVVFGILIK (position 662) (peptide)
peptide: LLVVVLGVVFGILIK
notes: synthetic 15-mer; also called Her2/neu.662
B3: HER2/neu DR supermotif exemplary peptide PSTFKGTPTAENPEY (position 1234) (peptide)
peptide: PSTFKGTPTAENPEY
notes: synthetic 15-mer; also called Her2/neu.1234
B4: HER2/neu DR supermotif exemplary peptide QGFFCPDPAPGAGGM (position 1028) (peptide)
peptide: QGFFCPDPAPGAGGM
notes: synthetic 15-mer; also called Her2/neu.1028
B5: HER2/neu DR supermotif exemplary peptide KEILDEAYVMAGVGS (position 765) (peptide)
peptide: KEILDEAYVMAGVGS
notes: synthetic 15-mer; also called Her2/neu.765
B6: Her2/neu.889.V2 (peptide)
peptide: MVLESILRR
B7: HER2/neu peptide, position 596, 10 amino acids (peptide)
peptide: CVARCPSGVK
notes: also called Her2/neu.596 (10-mer)
B8: HER2/neu peptide, position 528, 9 amino acids (peptide)
peptide: CVNCSQFLR
notes: also called Her2/neu.528
B9: HER2/neu peptide, position 607, 9 amino acids (peptide)
peptide: DLSYMPIWK
notes: also called Her2/neu.607 (9-mer)
B10: HER2/neu peptide, position 280, 9 amino acids (peptide)
peptide: ESMPNPEGR
B11: HER2/neu peptide, position 327, 10 amino acids (peptide)
peptide: GTQRCEKCSK
notes: also called Her2/neu.327 (10-mer)
B12: HER2/neu peptide, position 220, 9 amino acids (peptide)
peptide: CAGGCARCK
notes: also called Her2/neu.220 (9-mer)
B13: HER2/neu peptide, position 195, 9 amino acids (peptide)
peptide: CSPMCKGSR
notes: also called Her2/neu.195 (9-mer)
B14: HER2/neu peptide, position 962, 9 amino acids (peptide)
peptide: DSECRPRFR
notes: also called Her2/neu.962 (9-mer)
B15: HER2/neu peptide, position 346, 9 amino acids (peptide)
peptide: GMEHLREVR
notes: also called Her2/neu.346 (9-mer)
B16: HER2/neu peptide DMKLRLPASPETHLD (position 30) (peptide)
peptide: DMKLRLPASPETHLD
notes: also called Her2/neu.30
B17: HER2/neu peptide ETELVEPLTPSGAMP (position 693) (peptide)
peptide: ETELVEPLTPSGAMP
notes: also called Her2/neu.693
B18: HER2/neu peptide GTDMKLRLPASPETH (position 28) (peptide)
peptide: GTDMKLRLPASPETH
notes: also called Her2/neu.28
B19: HER2/neu peptide IKVLRENTSPKANKE (position 752) (peptide)
peptide: IKVLRENTSPKANKE
notes: also called Her2/neu.752

These binders were tested against T1, HLA-DRB1*0101 (human) (assay: competition with 125I-labeled standard peptide, purified HLA-DR, gel filtration).
T1 construct: also called DR1

Q: For B1, which relative binding ratio is on record?
A: 0.0048 ratio (standard IC50 / test IC50)

Q: With B2 as the binder, how does the relative binding ratio read?
A: -0.0008 ratio (standard IC50 / test IC50)

Q: Which relative binding ratio does the source give for B3 here?
A: -0.0005 ratio (standard IC50 / test IC50)

Q: For B4, which relative binding ratio is on record?
A: -0.0005 ratio (standard IC50 / test IC50)

Each binder was assayed against T2, HLA-DRB1*0401 (human) in the same assay as above.
T2 construct: also called DR4w4

Q: With B1 as the binder, how does the relative binding ratio read?
A: -0.0032 ratio (standard IC50 / test IC50)

Q: For B5, which relative binding ratio is on record?
A: 0.0073 ratio (standard IC50 / test IC50)

Q: Which relative binding ratio does the source give for B2 here?
A: -0.0025 ratio (standard IC50 / test IC50)

Q: With B3 as the binder, how does the relative binding ratio read?
A: -0.0032 ratio (standard IC50 / test IC50)

Q: How did the relative binding ratio turn out when B4 was run?
A: 0.023 ratio (standard IC50 / test IC50)

The binders below were run against T3, HLA-DRB1*0701 (human) in the same assay as above.
T3 construct: also called DR7

Q: For B1, which relative binding ratio is on record?
A: -0.0011 ratio (standard IC50 / test IC50)

Q: B5 was tested. Which relative binding ratio did it give?
A: -0.0011 ratio (standard IC50 / test IC50)

Q: B2 was tested. Which relative binding ratio did it give?
A: 0.0019 ratio (standard IC50 / test IC50)

Q: For B3, which relative binding ratio is on record?
A: -0.0011 ratio (standard IC50 / test IC50)

Q: Which relative binding ratio does the source give for B4 here?
A: -0.0011 ratio (standard IC50 / test IC50)

What follows are binders tested against HLA-A*6801 (human) (assay: competition with 125I-labelled standard peptide for purified HLA; gel filtration).

Q: For B6, which IC50 is on record?
A: 22 nM

The binders below were run against T4, HLA-A*0301 (purified HLA class I molecule) (human) (assay: inhibition of 125I probe peptide binding to purified HLA; ratio to standard peptide).
T4 construct: also called A3

Q: B7 was tested. Which relative binding ratio did it give?
A: 0.022 ratio (IC50 standard / IC50 test)

Q: How did the relative binding ratio turn out when B8 was run?
A: 0.0015 ratio (IC50 standard / IC50 test)

Q: Which relative binding ratio does the source give for B9 here?
A: 0.0005 ratio (IC50 standard / IC50 test)

Q: For B10, which relative binding ratio is on record?
A: 0.0003 ratio (IC50 standard / IC50 test)

Q: With B11 as the binder, how does the relative binding ratio read?
A: 0.021 ratio (IC50 standard / IC50 test)

What follows are binders tested against HLA-A*1101 (purified HLA class I molecule) (human) in the same assay as above.

Q: With B7 as the binder, how does the relative binding ratio read?
A: 0.0042 ratio (IC50 standard / IC50 test)

Q: For B8, which relative binding ratio is on record?
A: 0.031 ratio (IC50 standard / IC50 test)

Q: With B9 as the binder, how does the relative binding ratio read?
A: 0.01 ratio (IC50 standard / IC50 test)

Q: With B11 as the binder, how does the relative binding ratio read?
A: 0.61 ratio (IC50 standard / IC50 test)

The binders below were run against HLA-A*3101 (purified HLA class I molecule) (human) in the same assay as above.

Q: B7 was tested. Which relative binding ratio did it give?
A: 0.0008 ratio (IC50 standard / IC50 test)

Q: B8 was tested. Which relative binding ratio did it give?
A: 0.53 ratio (IC50 standard / IC50 test)

Q: For B9, which relative binding ratio is on record?
A: 0.0002 ratio (IC50 standard / IC50 test)

Q: How did the relative binding ratio turn out when B11 was run?
A: 0.014 ratio (IC50 standard / IC50 test)

The binders below were run against HLA-A*3301 (purified HLA class I molecule) (human) in the same assay as above.

Q: B7 was tested. Which relative binding ratio did it give?
A: 0.0064 ratio (IC50 standard / IC50 test)

Q: With B8 as the binder, how does the relative binding ratio read?
A: 0.58 ratio (IC50 standard / IC50 test)

Q: How did the relative binding ratio turn out when B9 was run?
A: 0.088 ratio (IC50 standard / IC50 test)

Q: How did the relative binding ratio turn out when B11 was run?
A: 0.0012 ratio (IC50 standard / IC50 test)

Each binder was assayed against HLA-A*6801 (purified HLA class I molecule) (human) in the same assay as above.

Q: For B7, which relative binding ratio is on record?
A: 0.0093 ratio (IC50 standard / IC50 test)

Q: With B8 as the binder, how does the relative binding ratio read?
A: 0.44 ratio (IC50 standard / IC50 test)

Q: For B9, which relative binding ratio is on record?
A: 0.031 ratio (IC50 standard / IC50 test)

Q: With B11 as the binder, how does the relative binding ratio read?
A: 0.01 ratio (IC50 standard / IC50 test)

These binders were tested against T4, HLA-A*0301 (purified HLA class I …) (assay: inhibition of 125I probe peptide binding to purified HLA; ratio to standard peptide; minus sign not explained).

Q: How did the relative binding ratio turn out when B12 was run?
A: -0.0002 ratio (IC50 standard / IC50 test)

Q: How did the relative binding ratio turn out when B13 was run?
A: -0.0008 ratio (IC50 standard / IC50 test)

Q: B14 was tested. Which relative binding ratio did it give?
A: -0.0002 ratio (IC50 standard / IC50 test)

Q: For B15, which relative binding ratio is on record?
A: -0.0002 ratio (IC50 standard / IC50 test)

Each binder was assayed against HLA-A*1101 (purified HLA class I molecule) (human) in the same assay as above.

Q: How did the relative binding ratio turn out when B12 was run?
A: -0.0002 ratio (IC50 standard / IC50 test)

Q: B13 was tested. Which relative binding ratio did it give?
A: -0.0001 ratio (IC50 standard / IC50 test)

Q: For B14, which relative binding ratio is on record?
A: -0.0002 ratio (IC50 standard / IC50 test)

Q: How did the relative binding ratio turn out when B10 was run?
A: -0.0002 ratio (IC50 standard / IC50 test)

Q: How did the relative binding ratio turn out when B15 was run?
A: -0.0002 ratio (IC50 standard / IC50 test)

These binders were tested against HLA-DR1 (DRB1*0101) (human) (assay: competition with 125I-labelled probe peptide on purified HLA-DR, gel filtration; IC50 of standard peptide / IC50 of test peptide).

Q: With B16 as the binder, how does the relative binding ratio read?
A: 0.001 ratio

Q: B17 was tested. Which relative binding ratio did it give?
A: 0.006 ratio

Q: For B18, which relative binding ratio is on record?
A: 0.001 ratio

Q: How did the relative binding ratio turn out when B19 was run?
A: -0.0005 ratio

What follows are binders tested against T5, HLA-DR4w4 (DRB1*0401) (human) in the same assay as above.
T5 construct: Purified HLA class II molecule

Q: How did the relative binding ratio turn out when B16 was run?
A: -0.0025 ratio

Q: For B17, which relative binding ratio is on record?
A: -0.0025 ratio

Q: B18 was tested. Which relative binding ratio did it give?
A: -0.0025 ratio

Q: For B19, which relative binding ratio is on record?
A: -0.0032 ratio

What follows are binders tested against T6, HLA-DR7 (DRB1*0701) (human) in the same assay as above.
T6 construct: Purified HLA class II molecule

Q: B16 was tested. Which relative binding ratio did it give?
A: -0.0013 ratio

Q: For B17, which relative binding ratio is on record?
A: -0.0013 ratio

Q: For B18, which relative binding ratio is on record?
A: -0.0013 ratio

Q: How did the relative binding ratio turn out when B19 was run?
A: -0.0011 ratio
